Series [1] concerns the target T1, coreTFIIH (7 subunits);Rad4-Rad23 (Saccharomyces cerevisiae? (yeast, tfb6 …, UniProt Q00578;P06839;P32776;Q02939;Q04673;Q12004;Q3E7C1;P14736;P32628 …, |)). Briefly: EMSA; AMP-PNP, 2 mM Mg2+; EMSA: 20 mM HEPES, 100 mM K-acetate, 2 mM Mg-acetate, 5 mM DTT, room temperature 20 min, 250 nM each component, 0.2x TBE agarose gel at 4 C (pH not stated in this buffer). To be noted: protein: native;recombinant; tags: TAP tags on Tfb4 and Ssl2; TEV-treated;His-purified, thrombin-digested; copies: 1;1;1;1;1;1;1;1;1; label: 32P 5' end (T4 PNK) in EMSA; blunt. For orientation: A gel shift assay detects complexes by their altered migration in electrophoresis.

In series [2] the target is T2, coreTFIIH (7 subunits);Rad4-Rad23;Rad33 (Saccharomyces cerevisiae? (yeast, tfb6 …, UniProt Q00578;P06839;P32776;Q02939;Q04673;Q12004;Q3E7C1;P14736;P32628;Q04231 …, ||)). Briefly: EMSA; 100 nM Rad33; Rad4-Rad23 0-100 nM; EMSA: 20 mM HEPES, 100 mM K-acetate, 2 mM Mg-acetate, 5 mM DTT, room temperature 20 min, 250 nM each component, 0.2x TBE agarose gel at 4 C (pH not stated in this buffer). To be noted: protein: native;recombinant;recombinant; tags: TAP tags on Tfb4 and Ssl2; TEV-treated;His-purified, thrombin-digested;His (HisTrap-purified, pETDuet); copies: 1;1;1;1;1;1;1;1;1;1; label: 32P 5' end (T4 PNK) in EMSA; blunt.

For series [3], the target named is T1, coreTFIIH (7 subunits);Rad4-Rad23. Briefly: EMSA; ATP 4 mM, 2 mM Mg2+; EMSA: 20 mM HEPES, 100 mM K-acetate, 2 mM Mg-acetate, 5 mM DTT, room temperature 20 min, 250 nM each component, 0.2x TBE agarose gel at 4 C (pH not stated in this buffer). The following applies: protein: native;recombinant; tags: TAP tags on Tfb4 and Ssl2; TEV-treated;His-purified, thrombin-digested; copies: 1;1;1;1;1;1;1;1;1; label: 32P 5' end (T4 PNK) in EMSA; 5' overhang on strand 1: 9 nt from printed strands (text says 10 nt).

Series [4] addresses T2, coreTFIIH (7 subunits);Rad4-Rad23;Rad33. Briefly: glycerol gradient sedimentation; ATP; EMSA: 20 mM HEPES, 100 mM K-acetate, 2 mM Mg-acetate, 5 mM DTT, room temperature 20 min, 250 nM each component, 0.2x TBE agarose gel at 4 C (pH not stated in this buffer). To be noted: protein: native;recombinant;recombinant; tags: TAP tags on Tfb4 and Ssl2; TEV-treated;His-purified, thrombin-digested;His (HisTrap-purified, pETDuet); copies: 1;1;1;1;1;1;1;1;1;1; label: 32P 5' end (T4 PNK) in EMSA; 5' overhang on strand 1: 9 nt from printed strands (text says 10 nt).

B1: -24/+15 AAF (dsDNA)
DNA 1: CCCATTCCAACCATCCCACTACCTGTCCATCTTCACTCA
DNA 2: TGAGTGAAGATGGACAGGTAGTGGGATGGTTGGAATGGG
modifications: N-2-acetylaminofluorene adduct on the single G of strand 1 (nt 25); printed strand spans -24 to +14
Take B1: the binding result in series [1] is given as “binds”.

B2: -24/+24 AAF (dsDNA)
DNA 1: CCCATTCCAACCATCCCACTACCTGTCCATCTTCACTCAACTATCACCC
DNA 2: GGGTGATAGTTGAGTGAAGATGGACAGGTAGTGGGATGGTTGGAATGGG
modifications: N-2-acetylaminofluorene adduct on the single G of strand 1 (nt 25, position 0)
Turning to B2, the binding result in series [1] and in series [2] was “binds” in each case.

B3: -24*/+24 AAF (dsDNA)
DNA 1: B2 DNA 1
DNA 2: GGGTGATAGTTGAGTGAAGATGGACAGGTAGTGGGATGGT
modifications: N-2-acetylaminofluorene adduct on the single G of strand 1 (nt 25, position 0)
Turning to B3, the binding result in series [3] and in series [4] was “binds” in each case.

For the origin of these results see publication PMC8184850, “Cryo-EM structure of TFIIH/Rad4–Rad23–Rad33 in damaged DNA opening in nucleotide excision repair” (Nature Communications, 2021).
